Laboratory results: patent US9527913B2, “Humanized pan-HER antibody compositions” (Symphogen A/S, priority 2012, dated 2016)

Legend:
cynomolgus HER2 = assay: Kinetic binding analysis by surface plasmon resonance (ProteOn XPR36, IgG capture); settings: Cynomolgus antigen
Protocol: (§1) Kinetic binding analysis of the purified humanized variants was performed on a ProteOn™ XPR36 biosensor (BioRad, USA) employing an IgG capture assay as described by Canziani et al. (Anal. Biochem. (2004) 325:301-307) that allows for measurement of antibody affinities of whole IgG molecules against soluble antigen under monovalent conditions. Briefly, approximately 5000 resonance units (RU) of a monoclonal mouse anti-human IgG Fc antibody (GE Healthcare, Denmark) was conjugated to a GLC chip surface (BioRad, USA) according to the manufacturer's instructions, followed by capture of individual antibodies of the invention or a negative control on the anti-Fc sensor surface. […] Next, 250 μl monovalent antigen (Sino Biologicals) was injected at a flow rate of 50 μl/min in serial threefold dilutions from 100 nM stock to generate response curves. The chip surface was regenerated between cycles by stripping the captured antibody/antigen complexes off the surface with a 10-second injection of 3 M MgCl2 (GE Healthcare, Denmark) repeated three times. Finally, binding responses were fitted to a Langmuir 1:1 binding model for calculation of the on-rate (kon or ka), off-rate (koff or kd) and affinity (KD) constants using double referencing.

human HER2 = biological target: T1, human HER2 (Homo sapiens, UniProt P04626); assay: as above; settings: Human antigen
T1 construct: against soluble antigen under monovalent conditions; purchased Sino Biologicals
Protocol: as §1

B1: antibody 4517: chimeric parent anti-HER2 antibody disclosed in WO 2012/059857; VH SEQ ID NO: 27, light chain SEQ ID NO: 29 (antibody)
VH: EVQLVESGGDLVKPGGSLKLSCAASGFTFSSYGMSWVRLTPDKRLEWVATISGGGSYTYYPDSVKGRFTISRDIAKSTLYLQMSSLKSEDTAVYYCARKGNYGNYGKLAYWGQGTSVTVS
light: DIQMTQSPASLSVSVGETVTITCRASENIYSNLAWYQQEQGKSPQLLVYAATNLADGVPSRFSGSGSGTQYSLKINSLQSEDFGSYYCQHFWGTPWTFGGGTKLEIKRTVAAPSVFIFPPSDEQLKSGTASVVCLLNNFYPREAKVQWKVDNALQSGNSQESVTEQDSKDSTYSLSSTLTLSKADYEKHKVYACEVTHQGLSSPVTKSFNRGEC
- Kd (cynomolgus HER2): 3.7 nM
- ka (cynomolgus HER2): 230000 M⁻¹ s⁻¹
- kd (cynomolgus HER2): 0.00086 s⁻¹
- ka (human HER2): 260000 M⁻¹ s⁻¹
- kd (human HER2): 0.00029 s⁻¹
